Where two headings read alike, the source gives them in different places.
System: CHO-K1 cells or COS-7 cells
Assay: Ca2+/Na+ selectivity of wt and mutant NaChBac, reversal potential under bi-ionic conditions (Example 2)
Type: cell-based
Procedure: Unless otherwise stated, the pipette solution contained (in mM); 147 Cs, 120 methanesulfonate, 8 NaCl, 10 EGTA, 2 Mg^2+-adenosine triphosphate, and 20 HEPES (pH 7.4). Bath solution contained (in mM); 140 NaCl, 10 CaCl2, 5 KCl, 10 HEPES (pH 7.4), and 10 glucose. For some experiments, NaCl was isotonically replaced by CaCl2.
For reversal potential measurements to determine the relative permeabilities of Na^+ and Ca^2+, the internal pipette solution contained (in mM): 100 mM Na-Gluconate, 10 NaCl, 10 EGTA, 20 HEPES-Na (pH 7.4 adjusted with NaOH, [Na^+]total=140). The external solution was (in mM): 140 NMDG-Cl, 10 CaCl2, 20 HEPES (pH 7.4 adjusted with HCl) or 80 NMDG-Cl, 50 CaCl2, and 20 HEPES. The fast kinetics and small current amplitude of SKM1 in 10 mM [Ca^2+]o necessitated the use of 50 mM [Ca^2+]o for accurate determination of Erev. The permeability ratio of Ca2+ was estimated according to the following equation: PCa/Px=asi(exp(ErevF/RT)[(exp(ErevF/RT)+1]/(4ase) where R, T, F, and Erev are the gas constant, absolute temperature, Faraday constant, and reversal potential, respectively, and x represents Cs^+ or Na^+ (i, internal; e, external) (Hille 2001). For calculations of membrane permeability, activity coefficients for Ca^2+, Cs^+ and Na^+ were estimated as follows: as=γs[Xs] where activity, as, is the effective concentration of an ion in solution, s related to the nominal concentration [Xs] by the activity coefficient, γs·γs was calculated from the Debye-Hückel equation: log γs=−0.51*zs^2√μ/[1+3.8ασ√μ] where μ is the ionic strength of the solution, zs is the charge on the ion, and αs is the effective diameter of the hydrated ion in nanometers (nm). The calculated activity coefficients were γ(Cs)i=0.70, γ(Ca)e=0.331, γ(Na)i=0.75 and γ(Na)e=0.73. The liquid junction potentials were measured using a salt bridge as described by Neher (Neher 1992) and these measurements agreed within 3 mV to those calculated by the JPCalc program (P. Barry) within Clampex (Axon Instruments, Union City, Calif.).
Reversal potentials of the NaChBac mutants were measured under bi-ionic conditions as described in the Methods. […] The average peak current amplitude measured at 0 mV obtained in 10 mM Ca^2+ Tyrode's solution or in 105 mM Ca^2+ solution is shown in FIG. 7B and normalized to the current amplitude measured in 10 mM Ca^2+ solution (FIG. 7C).
Relative permeability (PCa/PNa) was calculated as described in the Methods and Table 1. Since PCa/PNa had not been described for native Nav channels under these specific conditions, we also measured the relative permeability for SKM1, a skeletal muscle Na^+-selective channel (SKM1; Kraner, Rich et al. 1998) was expressed in COS and CHO cells and examined under identical conditions as NaChBac and similar to its mutants; Table 1).

B1: NaChBac: bacterial voltage-sensitive Na+-selective ion channel from Bacillus halodurans, 274 amino acids, SEQ ID NO: 1; pore residues 190-195 LESWAS (protein)
chain: MKMEARQKQNSFTSKMQKIVNHRAFTFTVIALILFNALIVGIETYPRIYADHKWLFYRIDLVLLWIFTIEIAMRFLASNPKSAFFRSSWNWFDFLIVAAGHIFAGAQFVTVLRILRVLRVLRAISVVPSLRRLVDALVMTIPALGNILILMSIFFYIFAVIGTMLFQHVSPEYFGNLQLSLLTLFQVVTLESWASGVMRPIFAEVPWSWLYFVSFVLIGTFIIFNLFIGVIVNNVEKAELTDNEEDGEADGLKQEISALRKDVAELKSLLKQLK
modifications: Bacillus Halodurans
notes: pore residues 190-195 LESWAS
current in 10 mM Ca2+/NMDG solution compared to 10 mM Ca2+ solution with Na+: almost undetectable | current on replacing 140 mM Na+/10 mM Ca2+ solution by isotonic (105 mM) Ca2+ solution: practically undetectable | PCa/PNa (external solution 80 NMDG-Cl, 50 CaCl2, 20 HEPES, listed as wt NaChBac): 0.15 | current in 10 mM Ca2+/NMDG solution compared to 10 mM Ca2+ solution with Na+ (listed as wt NaChBac): virtually eliminated
